Assay results from US20030148958A1 (PROCTER AND GAMBLE, published 2003).
Ends that are not written are not given here.

T1: CRF2R
T1 sequence (Q13324 whole entry, species assumed, looked up): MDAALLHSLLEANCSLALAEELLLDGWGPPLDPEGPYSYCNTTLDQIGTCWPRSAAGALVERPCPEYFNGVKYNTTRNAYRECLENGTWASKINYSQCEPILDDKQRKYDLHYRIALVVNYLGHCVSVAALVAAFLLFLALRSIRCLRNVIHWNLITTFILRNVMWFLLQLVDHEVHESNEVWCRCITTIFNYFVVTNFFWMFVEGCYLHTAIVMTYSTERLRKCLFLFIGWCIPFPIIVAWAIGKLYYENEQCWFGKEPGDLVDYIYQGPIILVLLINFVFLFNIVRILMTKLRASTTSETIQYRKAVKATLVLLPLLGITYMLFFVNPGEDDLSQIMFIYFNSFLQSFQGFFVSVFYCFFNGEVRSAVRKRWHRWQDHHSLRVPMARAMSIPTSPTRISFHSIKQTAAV


Legend:
CRF2R = target: T1, CRF2R; assay: cell-based or functional assay
CRF1R = assay: cell-based or functional assay
Wherever CRF1R Emax % is given: reference of the scale not given here.
Wherever CRF2R Emax % is given: reference of the scale not given here.

Binder | CRF2R EC50 (CRF2R) | CRF2R Emax % (CRF2R) | CRF1R EC50 (CRF1R) | CRF1R Emax % (CRF1R)
ZGPPISIDLPFQLLRKVIEIEKQEKEKQQAANNAELLAEI (not fully specified; C-terminal amide) [SEQ ID NO 272] | 23.3 nM | 100% | 1000 nM | 51.1%
ZGPPISIDLPFQLLRKVIEIEKQEKEKQQAANNAQLLAQI (not fully specified; C-terminal amide) [SEQ ID NO 276] | 22.1 nM | 100% | 1000 nM | 75.7%
ZGPPISIDLPFQLLRKVIEIEKQEKEKQQAANNAKLLAKI (not fully specified; C-terminal amide) [SEQ ID NO 274] | 13.8 nM | 100% | 508 nM | 80.9%
ZGPPISIDLPFQLLRKVIEIEKQEKEKQQAANNANLLANI (not fully specified; C-terminal amide) [SEQ ID NO 275] | 46.6 nM | 100% | 1000 nM | 38.3%
ZGPPISIDLPFQLLRKVIEIEKQEKEKQQAANNAQLLAHI (not fully specified; C-terminal amide) [SEQ ID NO 273] | 31.3 nM | 100% | 1000 nM | 59.3%
ZGPPISIDLPFQLLRKVIEIEKQEKEKQQAANNAHLLAHI (C-terminal amide) [SEQ ID NO 277] | 28.2 nM | 100% | 1000 nM | 39.9%
NDDPPISIDLPQYLLRNMIEMARIENEREQAGLNAKYLAEV-NH2 [SEQ ID NO 265] | 100 nM | 23.4% | 1000 nM | 9.3%
NDDPPISIDLPFQLLRNMIEMARIENEREQAGLNAKYLAEV-NH2 [SEQ ID NO 258] | 100 nM | 49.3% | 1000 nM | 23.6%
NDDPPISIDLPLFLLRNMIEMARIENEREQAGLNAKYLAEV-NH2 [SEQ ID NO 257] | 100 nM | 72.6% | 744 nM | 83.5%
NDDPPISIDLPLLLLRNMIEMARIENEREQAGLNAKYLAEV-NH2 [SEQ ID NO 268] | 100 nM | 59% | 1000 nM | 14.2%
NDDPPISIDLPLHLLRNMIEMARIENEREQAGLNAKYLAEV-NH2 [SEQ ID NO 259] | 100 nM | 65% | 820 nM | 83.6%
NDDPPISIDLPLILLRNMIEMARIENEREQAGLNAKYLAEV-NH2 [SEQ ID NO 269] | 100 nM | 77.3% | 1000 nM | 44.3%
NDDPPISIDLPFHLLRNMIEMARIENEREQAGLNAKYLAEV-NH2 [SEQ ID NO 262] | 100 nM | 92.2% | 408 nM | 100%
ZGPPISIDVPFQLLRKMIEIEKQEKEKQQAANNRLLLDTI (C-terminal amide) [SEQ ID NO 256] | 12.6 nM | 100% | 254 nM | 100%
ZGPPISIDLPFQLLRKVIEIEKQEKEKQQAANNARLLDTI (C-terminal amide) [SEQ ID NO 278] | 19.6 nM | 100% | 1000 nM | 48.7%
NDDPPISIDLPYYLLRNMIEMARIENEREQAGLNAKYLAEV-NH2 [SEQ ID NO 267] | 100 nM | 44.2% | 1000 nM | 22.8%
NDDPPISIDLPLQLLRNMIEMARIENEREQAGLNAKYLAEV-NH2 [SEQ ID NO 270] | 100 nM | 19.3% | 1000 nM | 7.85%
NDDPPISIDLPFFLLRNMIEMARIENEREQAGLNAKYLAEV-NH2 [SEQ ID NO 264] | 100 nM | 66.3% | 704 nM | 100%
NDDPPISIDLPTYLLRNMIEMARIENEREQAGLNAKYLAEV-NH2 [SEQ ID NO 266] | 100 nM | 19.4% | 1000 nM | 4.45%
NDDPPISIDLPFLLLRNMIEMARIENEREQAGLNAKYLAEV-NH2 [SEQ ID NO 260] | 100 nM | 89.3% | 834 nM | 89.7%
NDDPPISIDLPLYLLRNMIEMARIENEREQAGLNAKYLAEV-NH2 [SEQ ID NO 271] | 48.1 nM | 69% | 815 nM | 80.7%
DNPSLSIDLPYYLLRTLLELARTQSQRERAEQNAIIFASV-NH2 [SEQ ID NO 263] | 36.2 nM | 93% | 802 nM | 72%
NDDPPISIDLPFYLLRNMIEMARIENEREQAGLNAKYLAEV-NH2 [SEQ ID NO 261] | 100 nM | 95.3% | 274 nM | 100%

Second part, the binder after the results:

CRF2R EC50 (CRF2R) | CRF2R Emax % (CRF2R) | CRF1R EC50 (CRF1R) | CRF1R Emax % (CRF1R) | Binder
100 nM | 78.8% | 1000 nM | 12.2% | ZGPPISIDLPIFLLRKVIEIEKQEKEKQQAANNARLLARI (C-terminal amide) [SEQ ID NO 281]
25.8 nM | 60.8% | 1000 nM | 21.8% | ZGPPISIDLPIFLLRKMIEIEKQEKEKQQAANNARLLARI (not fully specified; C-terminal amide) [SEQ ID NO 282]
12.2 nM | 97.3% | 1000 nM | 69.5% | ZGPPISIDLPYWLLRKMIEIEKQEKEKQQAANNARLLARI (C-terminal amide) [SEQ ID NO 289]
13.5 nM | 92.5% | 1000 nM | 19.2% | ZGPPISIDLPYQLLRKVIEIEKQEKEKQQAANNARLLARI (C-terminal amide) [SEQ ID NO 286]
13.9 nM | 97.1% | 1000 nM | 11.1% | ZGPPISIDLPQILLRKMIEIEKQEKEKQQAANNARLLARI (C-terminal amide) [SEQ ID NO 285]
100 nM | 100% | 1000 nM | 6.4% | ZGPPISIDLPIILLRKMIEIEKQEKEKQQAANNARLLARI (C-terminal amide) [SEQ ID NO 290]
100 nM | 63.8% | 1000 nM | 4.75% | ZGPPISIDLPTWLLRKVIEIEKQEKEKQQAANNARLLARI (C-terminal amide) [SEQ ID NO 291]
13.1 nM | 100% | 1000 nM | 93% | ZGPPISIDLPFQLLRKVIEIEKQEKEKQQAANNARLLARI (not fully specified; C-terminal amide) [SEQ ID NO 279]
100 nM | 82.3% | 1000 nM | 11.8% | ZGPPISIDLPIFLLRKVIEIEKQEKEKQQAANNALLLATI (not fully specified; C-terminal amide) [SEQ ID NO 280]
10.6 nM | 72% | 635 nM | 100% | ZGPPISIDLPYQLLRKVIEIEKQEKEKQQAANNRLLLDTI (C-terminal amide) [SEQ ID NO 283]
100 nM | 100% | 1000 nM | 27.7% | ZGPPISIDLPTWLLRKVIEIEKQEKEKQQAANNRLLLDTI (C-terminal amide) [SEQ ID NO 284]
11.3 nM | 100% | 1000 nM |  | ZGPPISIDLPYQLLRKMIEIEKQEKEKQQAANNARLLAR (C-terminal amide) [SEQ ID NO 287]
14.7 nM | 100% | 838 nM |  | ZGPPISIDLPYQLLRKMIEIEKQEKEKQQAANNARLLAR (C-terminal amide) [SEQ ID NO 288]
